# Assay results reported in the supplement of paper PMC9112550, “Optimization of the antimicrobial peptide Bac7 by deep mutational scanning” (BMC Biology, 2022).
# Tested on: Escherichia coli TOP10
# Experiment: shrunken log2 fold change of peptide-encoding DNA abundance (4.5 h post-induction vs induction); higher = less antimicrobial activity (less host growth inhibition)
# Settings: time post-induction: 4.5 h; library: site-saturation at positions 5, 18, 19, 20
# 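Also: peptides expressed intracellularly from a pBAD plasmid library in pooled LB shake-flask culture, induced with 0.3% L-arabinose, DNA abundance read by NGS, three biological replicates, DESeq2 with apeglm shrinkage.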
row,Sequence,shrunken log2 fold change
1,RRIRDRPPRLPRPRPRPQQYPRP,-0.473
2,RRIRFRPPRLPRPRPRPPILPRP,-0.254
3,RRIRSRPPRLPRPRPRPAASPRP,-0.0449
4,RRIRPRPPRLPRPRPRPYLPPRP,-0.431
5,RRIRFRPPRLPRPRPRPQNGPRP,-0.0443
6,RRIRLRPPRLPRPRPRPVDHPRP,-0.0221
7,RRIRMRPPRLPRPRPRPMFQPRP,-0.228
8,RRIRVRPPRLPRPRPRPNNNPRP,-0.661
9,RRIRGRPPRLPRPRPRPIKSPRP,0.326
10,RRIRRRPPRLPRPRPRPGDVPRP,0.249
11,RRIRLRPPRLPRPRPRPHLAPRP,0.053
12,RRIRLRPPRLPRPRPRPWYVPRP,-0.125
13,RRIRQRPPRLPRPRPRPLRRPRP,2.24
14,RRIRDRPPRLPRPRPRPTWMPRP,0.507
15,RRIRWRPPRLPRPRPRPNTGPRP,-0.096
16,RRIRSRPPRLPRPRPRPGMGPRP,0.0599
17,RRIRPRPPRLPRPRPRPDRFPRP,-0.137
18,RRIRFRPPRLPRPRPRPNNKPRP,-0.646
19,RRIRMRPPRLPRPRPRPCAGPRP,0.213
20,RRIRLRPPRLPRPRPRPHTMPRP,-1.13
21,RRIRDRPPRLPRPRPRPLFAPRP,0.65
22,RRIRGRPPRLPRPRPRPVDQPRP,0.126
23,RRIRGRPPRLPRPRPRPRDYPRP,0.258
24,RRIRMRPPRLPRPRPRPSSGPRP,0.0493
25,RRIRERPPRLPRPRPRPRRVPRP,0.447

row,Sequence,shrunken log2 fold change
1,RRIRVRPPRLPRPRPRPTFEPRP,-0.106
2,RRIRHRPPRLPRPRPRPYCQPRP,-0.746
3,RRIRGRPPRLPRPRPRPTDLPRP,-0.109
4,RRIRWRPPRLPRPRPRPGCDPRP,0.818
5,RRIRDRPPRLPRPRPRPSRFPRP,0.128
6,RRIRGRPPRLPRPRPRPHFYPRP,0.324
7,RRIRPRPPRLPRPRPRPDGMPRP,-0.0319
8,RRIRMRPPRLPRPRPRPWDHPRP,0.0477
9,RRIRFRPPRLPRPRPRPFYGPRP,-0.146
10,RRIRARPPRLPRPRPRPFRGPRP,-0.0013
11,RRIRARPPRLPRPRPRPCGMPRP,0.0551
12,RRIRWRPPRLPRPRPRPAPSPRP,0.393
13,RRIRWRPPRLPRPRPRPRFVPRP,0.139
14,RRIRLRPPRLPRPRPRPKPEPRP,0.249
15,RRIRGRPPRLPRPRPRPKVCPRP,0.232
16,RRIRKRPPRLPRPRPRPNHAPRP,-0.022
17,RRIRRRPPRLPRPRPRPFAWPRP,0.189
18,RRIRARPPRLPRPRPRPWEEPRP,0.271
19,RRIRPRPPRLPRPRPRPGGRPRP,0.461
20,RRIRHRPPRLPRPRPRPCIIPRP,-0.0445
21,RRIRFRPPRLPRPRPRPEIDPRP,0.0823
22,RRIRGRPPRLPRPRPRPVFNPRP,0.155
23,RRIRMRPPRLPRPRPRPYVGPRP,0.0299
24,RRIRGRPPRLPRPRPRPRLEPRP,1.16
25,RRIRHRPPRLPRPRPRPISLPRP,-0.234

row,Sequence,shrunken log2 fold change
1,RRIRIRPPRLPRPRPRPWIIPRP,-0.207
2,RRIRARPPRLPRPRPRPLGFPRP,0.644
3,RRIRQRPPRLPRPRPRPWMIPRP,0.0219
4,RRIRTRPPRLPRPRPRPTNKPRP,-0.444
5,RRIRKRPPRLPRPRPRPSREPRP,0.555
6,RRIRYRPPRLPRPRPRPFSGPRP,0.0211
7,RRIRCRPPRLPRPRPRPIVFPRP,-0.31
8,RRIRKRPPRLPRPRPRPAQVPRP,0.296
9,RRIRHRPPRLPRPRPRPDLTPRP,-0.000777
10,RRIRVRPPRLPRPRPRPCAAPRP,0.121
11,RRIRPRPPRLPRPRPRPHSLPRP,-0.0621
12,RRIRYRPPRLPRPRPRPFVVPRP,-0.786
13,RRIRFRPPRLPRPRPRPQNKPRP,-0.592
14,RRIRYRPPRLPRPRPRPLNGPRP,-0.159
15,RRIRDRPPRLPRPRPRPEWLPRP,0.382
16,RRIRMRPPRLPRPRPRPMWRPRP,0.00628
17,RRIRGRPPRLPRPRPRPPRFPRP,1.04
18,RRIRRRPPRLPRPRPRPKRTPRP,0.759
19,RRIRLRPPRLPRPRPRPTQLPRP,0.221
20,RRIRDRPPRLPRPRPRPFTLPRP,-0.0329
21,RRIRERPPRLPRPRPRPYGFPRP,-0.382
22,RRIRHRPPRLPRPRPRPVTGPRP,-0.213
23,RRIRARPPRLPRPRPRPMHTPRP,0.261
24,RRIRWRPPRLPRPRPRPHCSPRP,-0.00908
25,RRIRVRPPRLPRPRPRPANDPRP,0.0219

row,Sequence,shrunken log2 fold change
1,RRIRMRPPRLPRPRPRPCSHPRP,-0.167
2,RRIRRRPPRLPRPRPRPRWLPRP,0.388
3,RRIRYRPPRLPRPRPRPMNLPRP,-0.0114
4,RRIRFRPPRLPRPRPRPPCTPRP,-0.228
5,RRIRGRPPRLPRPRPRPDLWPRP,1.79
6,RRIRWRPPRLPRPRPRPEDMPRP,0.282
7,RRIRRRPPRLPRPRPRPDCGPRP,0.16
8,RRIRNRPPRLPRPRPRPEQRPRP,0.00383
9,RRIRLRPPRLPRPRPRPAPGPRP,0.432
10,RRIRQRPPRLPRPRPRPRFQPRP,0.202
11,RRIRQRPPRLPRPRPRPTRWPRP,0.561
12,RRIRTRPPRLPRPRPRPWVLPRP,-0.0462
13,RRIRIRPPRLPRPRPRPQPHPRP,-0.00842
14,RRIRCRPPRLPRPRPRPADFPRP,1.07
15,RRIRPRPPRLPRPRPRPLYYPRP,-0.985
16,RRIRCRPPRLPRPRPRPSCVPRP,-0.0959
17,RRIRPRPPRLPRPRPRPMDLPRP,-0.00399
18,RRIRWRPPRLPRPRPRPSYIPRP,-0.715
19,RRIRWRPPRLPRPRPRPIQVPRP,-0.0332
20,RRIRMRPPRLPRPRPRPQDFPRP,0.0427
21,RRIRIRPPRLPRPRPRPTYGPRP,-0.548
22,RRIRTRPPRLPRPRPRPPFWPRP,0.379
23,RRIRDRPPRLPRPRPRPGKGPRP,0.0189
24,RRIRLRPPRLPRPRPRPFAGPRP,0.024
25,RRIRRRPPRLPRPRPRPHTKPRP,0.179

row,Sequence,shrunken log2 fold change
1,RRIRYRPPRLPRPRPRPWCTPRP,-1.06
2,RRIRPRPPRLPRPRPRPRHTPRP,0.136
3,RRIRARPPRLPRPRPRPFAKPRP,0.349
4,RRIRHRPPRLPRPRPRPGRSPRP,3.99
5,RRIRWRPPRLPRPRPRPFPFPRP,-0.28
6,RRIRDRPPRLPRPRPRPSVLPRP,-0.246
7,RRIRGRPPRLPRPRPRPRARPRP,1.09
8,RRIRKRPPRLPRPRPRPYETPRP,0.00149
9,RRIRNRPPRLPRPRPRPAVSPRP,-0.203
10,RRIRTRPPRLPRPRPRPFMQPRP,-0.0497
11,RRIRGRPPRLPRPRPRPYWRPRP,-0.104
12,RRIRNRPPRLPRPRPRPKDIPRP,0.0127
13,RRIRKRPPRLPRPRPRPNGAPRP,0.168
14,RRIRRRPPRLPRPRPRPVCHPRP,-0.0349
15,RRIRARPPRLPRPRPRPTLDPRP,0.777
16,RRIRQRPPRLPRPRPRPDNFPRP,0.013
17,RRIRVRPPRLPRPRPRPQAPPRP,0.167
18,RRIRWRPPRLPRPRPRPEYRPRP,0.0624
19,RRIRTRPPRLPRPRPRPPKKPRP,0.0946
20,RRIRTRPPRLPRPRPRPTNHPRP,-0.622
21,RRIRLRPPRLPRPRPRPCVQPRP,-0.0514
22,RRIRVRPPRLPRPRPRPRHWPRP,0.293
23,RRIRMRPPRLPRPRPRPYTIPRP,0.0978
24,RRIRGRPPRLPRPRPRPQKGPRP,0.0565
25,RRIRTRPPRLPRPRPRPFSCPRP,-0.0158

row,Sequence,shrunken log2 fold change
1,RRIRYRPPRLPRPRPRPLCKPRP,-0.588
2,RRIRFRPPRLPRPRPRPKWVPRP,-0.193
3,RRIRHRPPRLPRPRPRPAYDPRP,-0.265
4,RRIRHRPPRLPRPRPRPTNMPRP,1.96
5,RRIRRRPPRLPRPRPRPQVVPRP,0.0705
6,RRIRVRPPRLPRPRPRPIDYPRP,0.0808
7,RRIRYRPPRLPRPRPRPKMIPRP,-0.537
8,RRIRCRPPRLPRPRPRPMGMPRP,-0.184
9,RRIRFRPPRLPRPRPRPSSNPRP,-0.715
10,RRIRWRPPRLPRPRPRPTAMPRP,0.814
11,RRIRYRPPRLPRPRPRPDYIPRP,-0.0327
12,RRIRERPPRLPRPRPRPKVTPRP,-0.114
13,RRIRKRPPRLPRPRPRPHCEPRP,0.177
14,RRIRTRPPRLPRPRPRPRPYPRP,-0.223
15,RRIRFRPPRLPRPRPRPGHVPRP,-0.447
16,RRIRARPPRLPRPRPRPPSEPRP,1.17
17,RRIRARPPRLPRPRPRPQVAPRP,0.591
18,RRIRKRPPRLPRPRPRPDEWPRP,0.268
19,RRIRYRPPRLPRPRPRPIMPPRP,-0.948
20,RRIRARPPRLPRPRPRPAVLPRP,0.549
21,RRIRYRPPRLPRPRPRPAFIPRP,-0.24
22,RRIRGRPPRLPRPRPRPASFPRP,0.345
23,RRIRNRPPRLPRPRPRPQIHPRP,-0.364
24,RRIRERPPRLPRPRPRPNIRPRP,-0.273
25,RRIRSRPPRLPRPRPRPATFPRP,-0.366
